The RNAGym collection of RNA variant scans (doi:10.1093/molbev/msab373)

B1: Azoarcus group I ribozyme (parent)
chain: GUGCCUUGCGCCGGGAAACCACGCAAGGGAUGGUGUCAAAUUCGGCGAAACCUAAGCGCCCGCCCGGGCGUAUGGCAACGCCGAGCCAAGCUUCGGCGCCUGCGCCGAUGAAGGUGUAGAGACUAGACGGCACCCACCUAAGGCAAACGCUAUGGUGAAGGCAUAGUCCAGGGAGUGGCGAAAGUCACACAAACCGG

Variants of: B1
Assay: reverse-splicing fitness (ratio to wild type); higher = more active; in vitro selection; Mg2+ level not given
How it was run: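 An in vitro group I ribozyme library with randomized positions was T7-transcribed and gel-purified. In triplicate, 10 pmol RNA in EPPS pH 7.5 was reacted with 50 pmoles of a 30-nt RNA substrate for 1 h at 37 °C across several added MgCl2 levels (1–48 mM), then stopped with EDTA. Products were reverse transcribed from a substrate-complementary primer, PCR-amplified and sequenced (HiSeq 4000). Fitness is a variant's read proportion after selection over that before, normalised to wild type.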

Going from C82G A111U A120G C150U U176A to C82G A111U A120G C150U U176C, the reverse-splicing fitness rises from 0.0111 to 0.0178.

Going from C82G A111U A120C C150A C169A U176A to C82G A111U A120C C150A C169A U176C, the reverse-splicing fitness falls from 0.0237 to 0.0217.

Compared with C82G A111U A120C C150A C169A U176G, C82G A111U A120G A145G C150U C169U U176G is lower in reverse-splicing fitness: 0.00867 for the first, 0.00561 for the second.

Going from C82G A111U A120G A145G C150U C169U U176C to C82G A111U A120G A145G C150U C169U U176A, the reverse-splicing fitness rises from 0.0151 to 0.0169.

Compared with C82G A111U A120C A145U C150U U176C, C82G A111U A120C A145U C150U U176G is lower in reverse-splicing fitness: 0.0247 for the first, 0.00687 for the second.

Going from C82G A111U A120C A145U C150U U176A to C82G A111U A120G A145U C150A C169G U176G, the reverse-splicing fitness falls from 0.015 to 0.00501.

First: C82G A111U A120G A145U C150A C169G U176C
Second: C82G A111U A120G A145U C150A C169G U176A
The reverse-splicing fitness of the first is higher: 0.0163 for the first, 0.0162 for the second.

Compared with C82G A111U A120C C169A U176G, C82G A111U A120C C169A U176A is higher in reverse-splicing fitness: 0.00684 for the first, 0.0193 for the second.

Compared with C82G A111U A120C C169A U176C, C82G A111U A120G A145C C150U C169G U176G is lower in reverse-splicing fitness: 0.0224 for the first, 0.00518 for the second.

Going from C82G A111U A120G A145C C150U C169G U176A to C82G A111U A120G A145C C150U C169G U176C, the reverse-splicing fitness falls from 0.023 to 0.0136.

Going from C82G A111U A120G C169A U176A to C82G A111U A120G C169A U176C, the reverse-splicing fitness rises from 0.017 to 0.0215.

Going from C82G A111U A120G A145C C150G C169A U176G to C82G A111U A120G A145C C150G C169A U176A, the reverse-splicing fitness rises from 0.00582 to 0.00745.

Going from C82G A111U A120G A145C C150G C169A U176C to C82G A111U A120G A145C C150A U176A, the reverse-splicing fitness rises from 0.0077 to 0.00962.

First: C82G A111U A120G A145C C150A U176C
Second: C82G A111U A120G A145C C150A U176G
The reverse-splicing fitness of the first is higher: 0.0103 for the first, 0.00582 for the second.

Compared with C82G A111U A120G A145U C150U C169A U176C, C82G A111U A120G A145U C150U C169A U176A is higher in reverse-splicing fitness: 0.0128 for the first, 0.0149 for the second.

Going from C82G A111U A120G A145U C150U C169A U176G to C82G A111U A120G A145G C150U C169G, the reverse-splicing fitness rises from 0.00501 to 0.0128.

First: C82G A111U A120G A145G C150U C169A
Second: C82G A111U A120G A145G C150U C169U
The reverse-splicing fitness of the first is higher: 0.0121 for the first, 0.0112 for the second.

Compared with C82G A111U A120G A145G C150U C169A U176G, C82G A111U A120G A145G C150U C169A U176A is higher in reverse-splicing fitness: 0.00683 for the first, 0.0158 for the second.

Going from C82G A111U A120G A145G C150U C169A U176C to C82G A111U A120G A145G C169A U176C, the reverse-splicing fitness rises from 0.0145 to 0.0214.

Compared with C82G A111U A120G A145G C169A U176G, C82G A111U A120G A145G C169A U176A is higher in reverse-splicing fitness: 0.00491 for the first, 0.0172 for the second.

Compared with C82G A111U A120G A145C, C82G A111U A120G A145U is higher in reverse-splicing fitness: 0.0134 for the first, 0.0161 for the second.

First: C82G A111U A120G A145G
Second: C82G A111U A120G A145U C150U
The reverse-splicing fitness of the first is higher: 0.0151 for the first, 0.0139 for the second.

Going from C82G A111U A120G A145U C150A to C82G A111U A120G A145U C150G, the reverse-splicing fitness falls from 0.00819 to 0.00715.

Going from C82G A111U A120C C150G C169U U176A to C82G A111U A120C C150G C169U U176G, the reverse-splicing fitness falls from 0.00756 to 0.00705.

Going from C82G A111U A120C C150G C169U U176C to C82G A111U A120G A145G C150A C169G U176A, the reverse-splicing fitness rises from 0.013 to 0.0165.

Compared with C82G A111U A120G A145G C150A C169G U176C, C82G A111U A120G A145G C150A C169G U176G is lower in reverse-splicing fitness: 0.025 for the first, 0.0053 for the second.

Compared with C82G A111U A120C C169G U176C, C82G A111U A120C C169G U176G is lower in reverse-splicing fitness: 0.0244 for the first, 0.00577 for the second.

Going from C82G A111U A120C C169G U176A to C82G A111U A120G A145C C169A, the reverse-splicing fitness falls from 0.0203 to 0.00794.

Going from C82G A111U A120G A145C C169G to C82G A111U A120G A145C C169U, the reverse-splicing fitness falls from 0.0125 to 0.00836.

First: C82G A111U A120C C150U C169A U176G
Second: C82G A111U A120C C150U C169A U176A
The reverse-splicing fitness of the first is lower: 0.00644 for the first, 0.0158 for the second.

First: C82G A111U A120C C150U C169A U176C
Second: C82G A111U A120G A145C C150G C169U U176C
The reverse-splicing fitness of the first is higher: 0.0138 for the first, 0.0123 for the second.

Compared with C82G A111U A120G A145C C150G C169U U176A, C82G A111U A120G A145C C150G C169U U176G is lower in reverse-splicing fitness: 0.0121 for the first, 0.00569 for the second.

First: C82G A111U A120G C150A U176G
Second: C82G A111U A120G C150A U176A
The reverse-splicing fitness of the first is lower: 0.0103 for the first, 0.0143 for the second.

First: C82G A111U A120G C150A U176C
Second: C82G A111U A120G A145C C169U U176A
The reverse-splicing fitness of the first is lower: 0.0195 for the first, 0.0203 for the second.

First: C82G A111U A120G A145C C169U U176G
Second: C82G A111U A120G A145C C169U U176C
The reverse-splicing fitness of the first is lower: 0.00479 for the first, 0.0168 for the second.

Going from C82G A111U A120C C150G C169A U176C to C82G A111U A120C C150G C169A U176G, the reverse-splicing fitness falls from 0.0141 to 0.00844.

First: C82G A111U A120C C150G C169A U176A
Second: C82G A111U A120C U176G
The reverse-splicing fitness of the first is higher: 0.0137 for the first, 0.00814 for the second.

Compared with C82G A111U A120C U176C, C82G A111U A120C U176A is lower in reverse-splicing fitness: 0.0303 for the first, 0.0172 for the second.

Going from C82G A111U A120C C150A U176A to C82G A111U A120C C150A U176G, the reverse-splicing fitness falls from 0.0138 to 0.0115.

First: C82G A111U A120C C150A U176C
Second: C82G A111U A120G A145C C169G U176A
The reverse-splicing fitness of the first is lower: 0.0231 for the first, 0.0245 for the second.

Going from C82G A111U A120G A145C C169G U176C to C82G A111U A120G A145C C169G U176G, the reverse-splicing fitness falls from 0.0172 to 0.00404.

In the case of C82G A111U A120C A145U C169G U176A, the reverse-splicing fitness is reported as 0.0154.
